Test results as given in US9696316B2, “Conformationally dynamic peptides” (SYSTEM OF SYSTEMS ANALYTICS, INC., priority 2009, dated 2017).
Ends that are not written are not given here. * marks the point of attachment. EDANS = O=S(=O)(O)c1cccc2c(NCCN*)cccc12; FAM = 5(6)carboxyfluorescein

Tests used:
Aβ oligomer = Aβ oligomer (Homo sapiens, UniProt P05067); test: Aβ oligomer assay with FRET-labeled probes; format: binding; settings: FAM/EDANS labeled, water (FIG. 10 bottom panel B: increased β-sheet, FRET signal)
Source text: Alternatively, as illustrated in bottom panel B of FIG. 10, a peptide probe can be labeled at each terminus with members of a FRET pair (e.g. FAM and EDANS).

Aβ42 oligomer [1] = molecular target: T1, Aβ42 oligomer (Homo sapiens, UniProt P05067); test: Aqueous Aβ oligomer assay, pyrene fluorescence; format: binding; settings: for reactivity with Aβ42 oligomers (transition from pyrene excimer fluorescence to pyrene self-fluorescence): aqueous assay
Source text: The conformation of peptide probe bound to the target protein can also be detected by measuring pyrene fluorescence, on the peptide alone and in combination with the target protein. […] The excimer fluorescence associated with the β-sheet conformation has a different wavelength than the monomer fluorescence associated with the alpha-helix conformation, and the excimer:monomer fluorescence ratio is 9:1. […] The addition of Aβ42 oligomer target protein results in a dose-dependent shift of the excimer:monomer fluorescence ratio to 20:1 at the highest Aβ42 oligomer concentration (0.3 μM). This change in excimer:monomer fluorescence ratio reflects a corresponding conformational change in the peptide, that results in increased β-sheet conformation, and decreased α helix conformation.
An Aβ oligomer assay may be conducted in an aqueous solvent, such as water. […] Upon introduction of Aβ oligomer, the fluorescence profile shifts to primarily self-fluorescence (monomeric) (see FIG. 11), which is associated with reduced β-sheet structure, or increased alpha helix structure.
As discussed above, Peptide 22 (SEQ ID NO: 2) undergoes a conformational change upon interaction with Aβ oligomer. FIG. 11 illustrates the fluorescence spectra for Peptide 22 labeled at each terminus with pyrene and incubated in aqueous conditions for several hours at room temperature in 10 mM Hepes (pH 7.0). […] (solid line=Time 0; dashed line=3 hours; dotted line=18 hours).
Peptide 22 (100 nM) is incubated in water for 15 hours at room temperature with equimolar concentrations ([…]) of several potential Aβ substrates: Aβ42 oligomer (type 1); Aβ42 oligomer (type 2); Aβ1-42 monomer; Aβ1-40 monomer; Aβ1-42 fiber; Aβ1-40 fiber; bovine serum albumin (control substrate); and carbonic anhydrase (control substrate).
With reference to FIG. 13A, Peptide 22 (70 nM) is incubated with […] synthetic Aβ42 oligomer at 25 C, and fluorescence emission spectra is recorded after 3 hours incubation. […] (solid line—no Aβ42 oligomer; dashed/dot line—30 nN Aβ42 oligomer; large dashed line—100 nN Aβ42 oligomer; small dashed line—300 nN Aβ42 oligomer)

[2] = CD analysis of peptide probe conformation under different pH and salt conditions; format: physicochemical
Protocol: As discussed in Example 2, histidine and glutamic acid residue substitutions were introduced into Peptides 22, 38 and 45 (SEQ ID NOs: 2-4) so as to permit the formation salt bridges between those residues. CD analysis can be performed on such peptides under different pH and salt conditions to determine the conformation of the peptide under given conditions.
Peptide 38 (SEQ ID NO:3) labeled at each terminus with a pyrene moiety is used in this example. […] The addition of 500 mM NaCl greatly diminishes the alpha helix conformation in favor of a β-sheet conformation, at both pH levels. Thus, at pH 7, in the presence of 500 mM NaCl (large dashed line), the alpha helix content is 4%, while the fβ-sheet content is 40% (up from 10% without the salt). At pH 4, in the presence of 500 mM NaCl (dashed/dot line), the alpha helix content is 6%, while the β-sheet content is 52% (up from 4% without the salt). […] At greater salt concentrations, the salt bridge is destroyed, and the α helical conformation is no longer stabilized.

Aβ42 oligomer [3] = molecular target: T1, Aβ42 oligomer; test: CD analysis of peptide probe with target protein; format: binding
Source text: The conformation of the peptide probe bound to the target protein can be assessed by CD analysis. […] The peptide alone is highly alpha helical (36%). Upon mixing of Peptide 38 with the target protein, the peptide undergoes a conformation shift that results in increased β-sheet conformation, and decreased α helix conformation. That is, the secondary structure of Peptide 38 is altered such that the proportion of a helix is halved (18%), while the proportion of β-sheet structure is enhanced from 20% to 31%. […] Circular dichroism (CD) analysis is used to determine the secondary structure of Peptide 22, synthetic Aβ42 oligomer, and a mixture thereof. Samples are incubated in 10 mM sodium phosphate (pH 7.0) for 3 hours at room temperature before measuring CD. For each sample, the relative ellipticity is evaluated from 190-260 nm. […] Each data set represents the average of three separate spectral scans.

[4] = Additional work on stability of the β-sheet conformation of variants; format: physicochemical; settings: relative to parent sequence
[5] = mixed with Aβ42 oligomer (FIG. 8)

T1 sequence (P05067 672-713 limits assumed): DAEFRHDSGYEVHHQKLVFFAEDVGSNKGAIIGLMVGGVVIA
Chain of Aβ oligomer (P05067 672-713 limits assumed): as above

(FAM)EAA KLVFFAEDEGSRKHAIEGLMEGE(EDANS) ({FAM}-EAAKLVFFAEDEGSRKHAIEGLMEGE(EDANS); not fully specified (C-terminus)) [AD 290, P59, with FAM and EDANS, additional Ala, and solubilizing E residue]
FRET fluorescence behavior upon introduction of Aβ oligomer (Aβ oligomer): fluorescence behavior consistent with this type of conformation change

(FAM)EFR HDSGYEVHHQKLVFFAEDVGSNKGAIIGLME(EDANS) (EFRHDSGYEVHHQKLVFFAEDVGSNKGAIIGLME; not fully specified; FAM and EDANS labels) [AD292, Aβ residues 3-35, with FAM and EDANS and solubilizing E residue]
FRET fluorescence behavior upon introduction of Aβ oligomer (Aβ oligomer): fluorescence behavior consistent with this type of conformation change

(FAM)HHQ KLVFFAEDEGSRKHAIEGLMEGE(EDANS) ({FAM}-HHQKLVFFAEDEGSRKHAIEGLMEGE(EDANS); not fully specified (C-terminus)) [AD 291, P77, with FAM and EDANS and solubilizing E residue]
FRET fluorescence behavior upon introduction of Aβ oligomer (Aβ oligomer): fluorescence behavior consistent with this type of conformation change

(FAM)KLVFF AEDVG SNKBA IIELM E(EDANS) [AD293]
FRET fluorescence behavior upon introduction of Aβ oligomer (Aβ oligomer): fluorescence behavior consistent with this type of conformation change

KAAA KLVFFAEDVGSNKHAIIELMK (KAAAKLVFFAEDVGSNKHAIIELMK) [Peptide 45, Salt bridge at G29H and G33E; Ala additions to increase alpha-helicity]
reactivity with Aβ42 oligomers (transition from pyrene excimer fluorescence to pyrene self-fluorescence) (Aβ42 oligomer [1]): react with Aβ42 oligomers

KLVFFAEDAAAAKHAIIELMK (KLVFFAEDAAAAKHAIIELMK) [Peptide 38, Salt bridge at G29H and G33E; Ala substitutions to increase alpha-helicity]
alpha helix content (CD) ([2]; pH 4, 500 mM NaCl): 6% | β-sheet content (CD) ([2]; pH 4, 500 mM NaCl): 52% | alpha helix content (CD) ([2]; pH 4, no added salt): 52% | β-sheet content (CD) ([2]; pH 4, without the salt): 4% | alpha helix content (CD) ([2]; pH 7, 500 mM NaCl): 4% | β-sheet content (CD) ([2]; pH 7, 500 mM NaCl): 40% | alpha helix content (CD) ([2]; pH 7, no added salt): 38% | β-sheet content (CD) ([2]; pH 7, without the salt): 10% | proportion of alpha helix (CD) (Aβ42 oligomer [3]; [5]): 18% | proportion of β-sheet structure (CD) (Aβ42 oligomer [3]; [5]): 31% | proportion of alpha helix (CD) (Aβ42 oligomer [3]; peptide alone (FIG. 8)): 36% | proportion of β-sheet structure (CD) (Aβ42 oligomer [3]; peptide alone (FIG. 8)): 20% | reactivity with Aβ42 oligomers (transition from pyrene excimer fluorescence to pyrene self-fluorescence) (Aβ42 oligomer [1]): react with Aβ42 oligomers | preferential binding by state of self-aggregation of Aβ protein (Aβ42 oligomer [1]; versus monomers, fibers and control proteins): preferentially binds to Aβ protein in the form of soluble Aβ oligomers

KLVFFAEDVGDNKHADIELMK (KLVFFAEDVGDNKHADIELMK) [AD327, P22, with point mutation S26D, I31D]
effect of the substitutions on the β-sheet conformation of the probe [4]: destabilize the β-sheet conformation

KLVFFAEDVGDNKHAIIELMK (KLVFFAEDVGDNKHAIIELMK) [AD325, P22, with point mutation 526D]
effect of the substitutions on the β-sheet conformation of the probe [4]: destabilize the β-sheet conformation

KLVFFAEDVGSNKDADIELMK (KLVFFAEDVGSNKDADIELMK) [AD323, P22, with point mutations H29D and I31D]
effect of the substitutions on the β-sheet conformation of the probe [4]: destabilize the β-sheet conformation

KLVFFAEDVGSNKDAIIELMK (KLVFFAEDVGSNKDAIIELMK) [AD328, P22, with point mutation H29D]
effect of the substitutions on the β-sheet conformation of the probe [4]: destabilize the β-sheet conformation

KLVFFAEDVGSNKGAISGLMK (KLVFFAEDVGSNKGAISGLMK) [Peptide 132S, Wildtype, with I32S point mutation]
effect of the substitutions on the β-sheet conformation of the probe [4]: destabilize the β-sheet conformation

KLVFFAEDVGSNKHADIELMK (KLVFFAEDVGSNKHADIELMK) [AD330, P22, with point mutation I31D]
effect of the substitutions on the β-sheet conformation of the probe [4]: destabilize the β-sheet conformation

KLVFFAEDVGSNKHAIIEDMK (KLVFFAEDVGSNKHAIIEDMK) [AD329, P22, with point mutation L34D]
effect of the substitutions on the β-sheet conformation of the probe [4]: destabilize the β-sheet conformation

KLVFFAEDVGSNKKAIIELMK (KLVFFAEDVGSNKKAIIELMK) [Peptide 22 variation 2, Salt bridge at G29K and G33E]
reactivity with Aβ42 oligomers (transition from pyrene excimer fluorescence to pyrene self-fluorescence) (Aβ42 oligomer [1]): react with Aβ42 oligomers

KLVFFAEDVGSNKRAIIELMK (KLVFFAEDVGSNKRAIIELMK) [Peptide 22 variation 1, Salt bridge at G29R and G33E]
reactivity with Aβ42 oligomers (transition from pyrene excimer fluorescence to pyrene self-fluorescence) (Aβ42 oligomer [1]): react with Aβ42 oligomers

KLVSFAEDVGSNKHAIIELMK (KLVSFAEDVGSNKHAIIELMK) [GM6 variation 1, P22, with point mutation F19S]
effect of the substitutions on the β-sheet conformation of the probe [4]: destabilize the β-sheet conformation

KLVSFAEDVGSNKHAIIEPMK (KLVSFAEDVGSNKHAIIEPMK) [GM6, P22, with point mutations F19S, L34P]
effect of the substitutions on the β-sheet conformation of the probe [4]: destabilize the β-sheet conformation
